Measured values: patent WO2019024911A1 (dated 2019)

T1: human B7H3 antigen for screening and detection, 2Ig-B7H3 (R&D cat#1949-B3-050/CF) (human, UniProt Q5ZPR3 29-245)
T1 construct: Commercial product; also called human 2Ig-B7H3
T1 sequence: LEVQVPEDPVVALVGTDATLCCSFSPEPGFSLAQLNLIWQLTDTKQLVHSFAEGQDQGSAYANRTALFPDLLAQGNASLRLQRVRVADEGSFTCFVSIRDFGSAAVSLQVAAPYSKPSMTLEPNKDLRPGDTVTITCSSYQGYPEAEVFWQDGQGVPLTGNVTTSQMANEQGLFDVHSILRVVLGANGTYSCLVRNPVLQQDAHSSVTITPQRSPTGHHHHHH

T2: human B7H3 antigen for detection, 4Ig-B7H3 (SinoBiological cat#11188-H08H) (human, UniProt Q5ZPR3 29-461)
T2 construct: Commercial product; also called human 4Ig-B7H3
T2 sequence: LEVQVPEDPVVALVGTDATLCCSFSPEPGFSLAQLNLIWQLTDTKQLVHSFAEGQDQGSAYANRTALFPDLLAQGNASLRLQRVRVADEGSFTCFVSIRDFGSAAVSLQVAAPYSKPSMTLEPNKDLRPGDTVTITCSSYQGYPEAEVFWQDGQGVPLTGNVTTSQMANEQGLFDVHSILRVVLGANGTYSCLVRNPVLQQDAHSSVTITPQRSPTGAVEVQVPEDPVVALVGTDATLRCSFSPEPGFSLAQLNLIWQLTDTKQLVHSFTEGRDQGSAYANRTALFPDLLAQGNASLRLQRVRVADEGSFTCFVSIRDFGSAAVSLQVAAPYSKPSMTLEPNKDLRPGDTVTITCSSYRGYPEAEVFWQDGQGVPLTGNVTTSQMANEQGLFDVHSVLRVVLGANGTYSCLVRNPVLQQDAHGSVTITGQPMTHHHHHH

T3: murine B7H3 antigen for screening and detection (R&D cat#1397-B3-050/CF) (mouse, UniProt Q8VE98 29-244)
T3 construct: Commercial product; also called mouse B7H3
T3 sequence: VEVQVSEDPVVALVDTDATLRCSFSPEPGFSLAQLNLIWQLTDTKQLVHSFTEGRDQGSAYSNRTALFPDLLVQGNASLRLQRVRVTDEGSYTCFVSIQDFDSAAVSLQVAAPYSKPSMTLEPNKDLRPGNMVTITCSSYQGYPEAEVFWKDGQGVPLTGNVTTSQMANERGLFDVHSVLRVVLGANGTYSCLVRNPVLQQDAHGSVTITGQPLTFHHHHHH

B1: h1702 antibody (fully human anti-B7H3 full-length antibody) (antibody, human IgG1, lambda)
heavy: not shown
light: QTVVTQEPSFSVSPGGTVTLTCGLSSGSVSTSHYPSWYQQTPGQAPRMLIYNTNTRSSGVPDRFSGSILGNKAALTITGAQADDESDYYCAIHVDRDIWVFGGGTKLTVLGQPKANPTVTLFPPSSEELQANKATLVCLISDFYPGAVTVAWKADGSPVKAGVETTKPSKQSNNKYAASSYLSLTPEQWKSHRSYSCQVTHEGSTVEKTVAPTECS
notes: IgG1 heavy chain, lambda light chain; naked antibody expressed in HEK293E cells; also called B7H3-h1702
B2: B7H3-h1702-L2-3024 (antibody-drug conjugate of h1702 with drug-linker 3024) (antibody, human IgG1, lambda)
heavy: not shown
light: B1 light
modifications: drug-linker 3024 coupled through a propylthiol linker (L2) to lysine residues of the antibody; positions not given; average y = 2.05 per antibody
notes: also called h1702-3024
B3: B7H3-h1702-L2-MC-MMAF (antibody-drug conjugate of h1702 with MC-MMAF) (antibody, human IgG1, lambda)
heavy: not shown
light: B1 light
modifications: MC-MMAF coupled through a propylthiol linker (L2) to lysine residues of the antibody; positions not given; average y = 1.76 per antibody
notes: also called h1702-MMAF
B4: B7H3-h1703-L2-MC-MMAF (antibody-drug conjugate of h1703 with MC-MMAF) (antibody, human IgG1, kappa, V domains shown)
VH: QVQLQESGGGLVQPGGSLRLSCAASGFTFSSYAMSWVRQAPGKGLEWVSAISGSGGSTYYADSVKGRYTISRDNSKNTLYLQMNSLRAEDTAVYYCAKGVGPVHALDVWGQGTTVTVSS
VL: DIRLTQSPSSLSASVGDRVTITCRASQSISTYLNWYQQKPGKAPILLINAVSGLQSGVPSRFSGSGSGTHFTLTITSLQPEDFATYYCQQSYSTPMWTFGQGTKVEIKR
modifications: MC-MMAF coupled through a propylthiol linker (L2) to lysine residues of the antibody; positions not given; average y = 2.29 per antibody
notes: also called h1703-MMAF
B5: B7H3-h1703-L2-3024 (antibody-drug conjugate of h1703 with drug-linker 3024) (antibody, human IgG1, kappa, V domains shown)
VH: B4 VH
VL: B4 VL
modifications: drug-linker 3024 coupled through a propylthiol linker (L2) to lysine residues of the antibody; positions not given; average y = 1.62 per antibody
notes: also called h1703-3024
B6: h1703 antibody (fully human anti-B7H3 full-length antibody) (antibody, human IgG1, kappa, V domains shown)
VH: B4 VH
VL: B4 VL
notes: IgG1 heavy chain, kappa light chain; naked antibody; also called B7H3-h1703
B7: B7H3-h1702-cys-3024 (antibody-drug conjugate of h1702 with drug-linker 3024 on cysteines) (antibody, human IgG1, lambda)
heavy: not shown
light: B1 light
modifications: drug-linker 3024 on cysteine thiols after TCEP reduction; positions not given; average y = 3.5 per antibody
B8: B7H3-h1704-3-cys-3024 (antibody-drug conjugate of humanized h1704-3 with drug-linker 3024 on cysteines) (antibody, human IgG1, kappa, V domains shown)
VH: EVQLVESGGGLVKPGGSLRLSCAASGFTFSRYGMSWVRQAPGKGLEWVSAISSGGGSIYYPDTVKGRLTISRDNAKNTLYLQMNSLRAEDTAVYYCTRHYLLFEMDYWGQGTTVTVSS
VL: DIVLTQSPSFLSASVGDRVTITCKASQNVNTAVAWYQQKPGKAPKLLIFSASNRYTGVPSRFSGSGSGTDFTLTISSLQPEDVAAYFCQQYSSSLTFGGGTKLEIKR
modifications: drug-linker 3024 on cysteine thiols after TCEP reduction; positions not given; average y = 3.4 per antibody
notes: Antibody-drug conjugate made from antibody h1704-3 (IgG1, kappa)
B9: B7H3-h1702DS-cys-3024 (antibody-drug conjugate of h1702-DS with drug-linker 3024 on cysteines) (antibody, human IgG1, lambda)
heavy: not shown
light: DTVVTQEPSFSVSPGGTVTLTCGLSSGSVSTSHYPSWYQQTPGQAPRMLIYNTNTRSSGVPDRFSGSILGNKAALTITGAQADDESDYYCAIHVDRDIWVFGGGTKLTVLGQPKANPTVTLFPPSSEELQANKATLVCLISDFYPGAVTVAWKADGSPVKAGVETTKPSKQSNNKYAASSYLSLTPEQWKSHRSYSCQVTHEGSTVEKTVAPTEC
modifications: drug-linker 3024 on cysteine thiols after TCEP reduction; positions not given; average y = 3.55 per antibody

Biological target: T1, human B7H3 antigen for screening and …
Assay: ELISA, antigen coated at 1 ug/ml, HRP anti-human IgG Fc detection

EC50 [nM] | Binder
0.11 | B1
0.17 | B2
0.16 | B3
2.36 | B4
15.1 | B5
10.3 | B6

Biological target: T2, human B7H3 antigen for detection, …
Assay: as above

EC50 [nM] | Binder
0.16 | B1
0.26 | B2
0.18 | B3
3.08 | B4
4.97 | B5
2.1 | B6

Biological target: T3, murine B7H3 antigen for screening and …
Assay: ELISA, mouse B7H3 coated at 1 ug/ml, HRP anti-human IgG Fc detection

EC50 [nM] | Binder
18.1 | B1
131 | B2
59 | B3
116 | B4
115 | B5
86.7 | B6

Biological target: T1, human B7H3 antigen for screening and …
Assay: SPR (Biacore T200), ADC captured on Protein A chip, antigen in flow, 1:1 Langmuir fit

Kd [nM] | Binder
580 | B2
219 | B5

Biological target: T2, human B7H3 antigen for detection, …
Assay: as above

Kd [nM] | Binder
10.5 | B2

Biological target: T1, human B7H3 antigen for screening and …
Assay: SPR (Biacore T200), antibody captured on Protein A chip, antigen in flow, 1:1 Langmuir fit

Kd [nM] | Binder
797 | B1
448 | B6

Biological target: T2, human B7H3 antigen for detection, …
Assay: as above

Kd [nM] | Binder
8.55 | B1

Biological target: T2, human B7H3 antigen for detection, …
Assay: ELISA, antigen coated at 1 ug/ml, HRP anti-human IgG Fc detection (column of the single value not certain)

EC50 [nM] | Binder
0.29 | B7
0.09 | B8
0.3 | B9

Biological target: T1, human B7H3 antigen for screening and …
Assay: SPR (Biacore T200), ADC captured on Protein A chip, antigen in flow, 1:1 Langmuir fit (column of the single value inferred)

Kd [nM] | Binder
452 | B3
193 | B4

Biological target: T2, human B7H3 antigen for detection, …
Assay: as above

Kd [nM] | Binder
11.2 | B7
0.778 | B8
10.6 | B9
